Source: publication PMC3355655

Substrate: O=P(O)(O)O[C@H]1[C@H](O)[C@@H](OP(=O)(O)O)[C@H](OP(=O)(O)O)[C@@H](OP(=O)(O)O)[C@H]1O
Assay: purified protein
Conditions: Mg2+

B1: SHIP2 (SH2 (Src homology 2)-domain-containing inositol-phosphatase-2) (Homo sapiens) (protein)
chain: DEPDMISVFIGTWNMGSVPPPKNVTSWFTSKGLGKTLDEVTVTIPHDIYVFGTQENSVGDREWLDLLRGGLKELTDLDYRPIAMQSLWNIKVAVLVKPEHENRISHVSTSSVKTGIANTLGNKGAVGVSFMFNGTSFGFVNCHLTSGNEKTARRNQNYLDILRLLSLGDRQLNAFDISLRFTHLFWFGDLNYRLDMDIQEILNYISRKEFEPLLRVDQLNLEREKHKVFLRFSEEEISFPPTYRYERGSRDTYAWHKQKPTGVRTNVPSWCDRILWKSYPETHIICNSYGCTDDIVTSDHSPVFGTFEVGVTSQFISKKGLSKTSDQAYIEFESIEAIVKTASRTKFFIEFYSTCLEEYKKSFENDAQSSDNINFLKVQWSSRQLPTLKPILADIEYLQDQHLLLTVKSMDGYE
- Km: 215 ± 28 µM
